{"source": "patent US20220396632A1", "about": "(VERSEAU THERAPEUTICS, published 2022)", "binders": {"B1": {"name": "19I01 (antibody, V domains shown)", "VH": "EVQLVESGGGLVKPGGSRKLSCAASGFTFSDYGMHWVRQAPEKGLEWVAYISSGSSTIYYADTVKGRFTISRDNAKNTLFLQMTSLRSEDTAMYYCARGVDGYWGQGTTLTVSS", "VL": "DVVMTQTPLSLPVSLGDQASISCRSSQSLVHSNGNTYLHWYLQKPGQSPKFLIYKVSNRFSGVPDRFSGSGSGTDFTLKISRVEAEDLGVYFCSQTTHVPLTFGAGTKLELK", "notes": "From mouse immunisation; only variable domains given; also called 19101"}, "B2": {"name": "9F9 (antibody, V domains shown)", "VH": "EVQLVETGGGLVQPKGSLKLSCAASGFTFNTNAMNWVRQAPGKGLEWVARIRSKSNNYATYYADSVKDRFTISRDDTQSMIYLQMNNLKTEDTGMYYCVRGGSYWYFDVWGAGTTVTVSS", "VL": "DVLMTQTPLSLPVSLGDQASISCRSSQSIVNSNGNTYLEWYLQKPGQSPKLLIYKVSNRFSGVPDRFSGSGSGTDFTLKISRVEAEDLGVYYCFQGSHVPWTFGGGTKLEIK", "notes": "Control anti-PSGL-1 mAb, recombinant; only variable domains given; also called 9F6"}, "B3": {"name": "43B6 (antibody, V domains shown)", "VH": "EVQLQQSGPDLVKPGALVKISCKASGYSFTAYYIHWVKQSHGKSLEWIGRVNPNTGGTSYNPKFKGKAILNVDKSSSTAYMELRSLTSEDSAVYYCARSGSPYYRYDDWGQGTTLTVSS", "VL": "ENVLTQSPAIMSASPGEKVTMTCRASSTVNSTYLHWFQQKSGASPKLWIYGSSNLASGVPARFSGSGSGTSYSLTISSVEAEDAATYYCQQYSGYPLTFGAGTTLELK", "notes": "Control anti-PSGL-1 mAb, recombinant; only variable domains given; also called 43B3"}}, "key": {"[1]": {"target": "T1, Biotin PSGL-1(42-62) D52A peptide (C-terminal Lys-biotin)", "T1 peptide": "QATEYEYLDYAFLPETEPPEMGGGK", "assay": "ELISA, streptavidin-bound Ala peptide"}, "[2]": {"target": "T2, Biotin PSGL-1(42-62) P55A peptide (C-terminal Lys-biotin)", "T2 peptide": "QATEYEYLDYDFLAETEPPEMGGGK", "assay": "ELISA, streptavidin-bound Ala peptide"}, "[3]": {"target": "T3, Recombinant human PSGL-1(ECD)-hFc1 (R&D Systems, Cat. 3345-PS) (human, UniProt Q14242 42-305)", "T3 construct": "Bought; Gln42-Val295 counted on AAC50061; also called PSGL-1-Fc; PSGL-1-hFc1 chimera; not shown: human IgG1 Fc, Pro100-Lys330", "T3 sequence": "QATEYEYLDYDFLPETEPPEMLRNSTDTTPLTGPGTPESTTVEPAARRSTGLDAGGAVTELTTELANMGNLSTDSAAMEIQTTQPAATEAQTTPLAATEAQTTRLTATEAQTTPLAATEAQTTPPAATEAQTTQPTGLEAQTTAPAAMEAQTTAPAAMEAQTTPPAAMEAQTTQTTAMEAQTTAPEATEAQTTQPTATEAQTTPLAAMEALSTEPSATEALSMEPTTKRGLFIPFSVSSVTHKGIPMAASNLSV", "assay": "ELISA, plate-bound target"}}}
{"binder": "B1", "values": [{"measurement": "EC50", "setting": "[1]", "result": 3.18, "unit": "nM"}, {"measurement": "EC50", "setting": "[2]", "result": 8.21, "unit": "nM"}, {"measurement": "EC50", "setting": "[3]", "result": 1.23, "unit": "nM"}]}
{"binder": "B2", "values": [{"measurement": "binding result", "setting": "[1]", "result": "no binding"}, {"measurement": "EC50", "setting": "[2]", "result": "> 10", "unit": "nM"}, {"measurement": "EC50", "setting": "[3]", "result": 0.06, "unit": "nM"}]}
{"binder": "B3", "values": [{"measurement": "binding result", "setting": "[1]", "result": "no binding"}, {"measurement": "EC50", "setting": "[2]", "result": 1.8, "unit": "nM"}, {"measurement": "EC50", "setting": "[3]", "result": 0.05, "unit": "nM"}]}
